Source: patent US20090031441A1 (NATIONAL UNIVERSITY CORPORATION NAGOYA UNIVERSITY, published 2009)

Experiments:
[1] = biological target: T1, RGL3 (Arabidopsis DELLA protein), yeast two-hybrid prey in pGADT7 AD vector (Arabidopsis, UniProt Q9LF53 1-523); assay: yeast two-hybrid system
T1 construct: also called AtDELLA
T1 sequence (looked up): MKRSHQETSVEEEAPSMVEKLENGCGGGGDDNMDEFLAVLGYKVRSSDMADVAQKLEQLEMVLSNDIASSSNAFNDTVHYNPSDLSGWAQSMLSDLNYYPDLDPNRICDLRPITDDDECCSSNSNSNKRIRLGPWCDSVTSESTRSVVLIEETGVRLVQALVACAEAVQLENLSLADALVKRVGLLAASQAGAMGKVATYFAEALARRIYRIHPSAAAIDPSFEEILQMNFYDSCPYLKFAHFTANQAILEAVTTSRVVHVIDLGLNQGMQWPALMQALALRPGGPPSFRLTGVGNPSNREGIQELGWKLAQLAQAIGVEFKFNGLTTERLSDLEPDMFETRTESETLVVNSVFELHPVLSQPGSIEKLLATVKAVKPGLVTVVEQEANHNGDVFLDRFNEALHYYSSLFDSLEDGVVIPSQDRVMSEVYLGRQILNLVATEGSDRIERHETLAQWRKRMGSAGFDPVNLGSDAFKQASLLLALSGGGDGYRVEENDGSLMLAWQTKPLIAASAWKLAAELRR
Description: (§1) Arabidopsis has five DELLA proteins (RGA, GAI, RGL1, RGL2, and RGL3; collectively designated AtDELLA; Fleet, C. M., and Sun, T.-P. (2005) Curr. Opin. Plant Biol., 8, 77-85; Dill, A., and Sun, T. (2001) Genetics, 159, 777-785); therefore, there are 15 possible combinations of GID1/DELLA proteins. To verify the positive interactions between AtGID1-AtDELLA, two experiments were conducted using the yeast two hybrid (Y2H) system. In the first experiment (Assay A), a viable colony assay using a defined medium in which only positive clones would survive was carried out. In the second experiment (Assay B), β-galactosidase activity was measured, as reporter gene product of AtGID1-AtDELLA interactions.
(§2) BD Matchmaker Two-hybrid System 3 (Clontech, Palo Alto, Calif., USA; now part of Takara Bio) was used in the Y2H experiments. After confirming the PCR products of the AtGID1 genes by sequencing, PCR products were cloned into pGBKT7 DNA-BD shuttle vector to construct bait plasmids. Likewise, the entire coding region of each AtDELLA gene (GAI including EcoRI and XhoI sites; RGA including BamHI and XhoI sites; RGL1 including SmaI and SacI sites; RGL2 including SmaI and ClaI sites; RGL3 including SmaI and XhoI sites on the ends) was cloned into pGADT7 AD vector. The S. cerevisiae AH109 (MATa) strain or Y187 (MATα) strain was used, and DNA-BD and AD vector cassettes were used as negative controls. The details of the method used for the yeast assay are as described in the manufacturer's instructions (Yeast Protocols Handbook #PT3024-1; http://www.clontech.com/). Experiments were carried out four times independently. Similar results were obtained each time.

[2] = biological target: T2, RGL1 (Arabidopsis DELLA protein), yeast two-hybrid prey in pGADT7 AD vector (Arabidopsis, UniProt Q9C8Y3 1-511); assay: yeast two-hybrid system
T2 construct: also called AtDELLA
T2 sequence (looked up): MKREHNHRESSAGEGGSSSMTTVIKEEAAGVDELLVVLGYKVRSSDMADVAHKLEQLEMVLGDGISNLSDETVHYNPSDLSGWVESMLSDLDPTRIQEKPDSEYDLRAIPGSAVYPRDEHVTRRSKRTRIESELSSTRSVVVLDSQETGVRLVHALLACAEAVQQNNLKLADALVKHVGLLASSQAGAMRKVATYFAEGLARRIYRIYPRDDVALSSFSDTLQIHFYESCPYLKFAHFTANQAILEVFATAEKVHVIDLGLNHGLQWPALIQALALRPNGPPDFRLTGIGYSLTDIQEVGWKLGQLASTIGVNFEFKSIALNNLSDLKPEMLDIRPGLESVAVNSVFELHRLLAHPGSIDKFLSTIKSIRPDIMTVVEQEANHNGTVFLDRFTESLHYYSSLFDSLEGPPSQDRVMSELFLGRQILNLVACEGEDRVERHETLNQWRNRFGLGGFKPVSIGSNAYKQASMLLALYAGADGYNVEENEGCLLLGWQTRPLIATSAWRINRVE
Description: as §1, §2

binding result [1]: binds | binding result [2]: binds
B1: AtGID1a (At3g05120), yeast two-hybrid bait in pGBKT7 DNA-BD vector (receptor, not shown: small tags and cut ends)
chain: MAASDEVNLIESRTVVPLNTWVLISNFKVAYNILRRPDGTFNRHLAEYLDRKVTANANPVDGVFSFDVLIDRRINLLSRVYRPAYADQEQPPSILDLEKPVDGDIVPVILFFHGGSFAHSSANSAIYDTLCRRLVGLCKCVVVSVNYRRAPENPYPCAYDDGWIALNWVNSRSWLKSKKDSKVHIFLAGDSSGGNIAHNVALRAGESGIDVLGNILLNPMFGGNERTESEKSLDGKYFVTVRDRDWYWKAFLPEGEDREHPACNPFSPRGKSLEGVSFPKSLVVVAGLDLIRDWQLAYAEGLKKAGQEVKLMHLEKATVGFYLLPNNNHFHNVMDEISAFVNAEC
notes: Bait fusion for the Y2H assays (BD Matchmaker Two-hybrid System 3); also called Arabidopsis GID1
